From the DeepSol protein solubility set

Test: soluble on expression in E. coli; label from the status in PepcDB or PDB records

| Sequence | soluble on expression in E. coli |
| --- | --- |
| GMTTENTTALLLIDFQNDYFSTYNGAKNPLVGTEAAAEQGAKLLAKFRQQGLPVVHVRHEFPTDEAPFFLPGSDGAKIHPSVAAQEGEAVVLKHQINSFRDTDLKKVLDDAGIKKLVIVGAMTHMCIDAVTRAAEDLGYECAVAHDACATLDLEFNGITVPAAQVHAAFMSALSFAYANVASADELIAGL | soluble |
| MHPSLRYIQGYPQNIVEQVSSLVDNGKLIPWFEKRYPDRHQIKSEKALYEYAIAIKNRYMKKASPISKVVYDKKIHAVNNALGLHSVISRNHGGKLKSKNEIRIANVFKDAPEALLRMLVVHELAHTREKNHDKAFYQLCCYMEPEYHQLELDARLFMIYLDLKANSNEEQLEHHHHHH | soluble |
| MKRVRLQEVAQVAGVSLGLASAVLNGRHVRARPETVERIREAAQRLGYVPDRMAQAMRWGRTGIIALVVPNFANPYYSALAVEVQRAAWEADLEVLVYANPTEDLAQVSRAVSARRVDGGIIVVSHYTPEELKAHLPLEIPWVGVGHALEPLPFDRVSFKDKEAAMDAVRYLADKGYRRIAHLAGPAPSPTAKARLEGYLEAVSALGMPALVQEGTFRYGDNQRALQTLLGWRADALLAGNDLMALEALAFLQDRGVPVPQGMAVVGFDGIPMGEWVRPQLTTIVRSPRASAQAALARLLARLEGAGEPPQEVWLDTSLRPGDSA | soluble |
| MNDDRATAFNALKNKTVCVQGDGNSRQFYHALVEILSNHSSAIPVNKNGNDFCNAPFAQCPQDTYYFDLVDKSDNLSVKLYWRWAPEFSDIECPMKVPSGFTPGSNYSFPSGPDTLSCDINIMDAGQWELFEKDANVTTAGYSQGVSNLSKCFSSDKSAKYFWIAAYALTPEQLQIHLPYNNTDVERINEVATQGLNSTACVLNGYDVTVNAFNDTKEATTDGIHYLGWINEQVVQLFFNAVTNSSAPTVPSSNVSVTSPNVQLGQVPNLNPSTTNSFLPVQTIVTVPSSSATSASSGLNFGGSSQGGGSGIPQL | not soluble |
| MDFLARATAIVGNTMVLMRRFGSPGTQAIGQSPAIPEAQKQGIMTLKMPAAKGWAPGHLPTPAPGLKVNAFARDLEHPRWIEVLPSGDVLVAEARQLPTPPKTLLDRAAQATMRRIRALGDSPNRITLLRDPDGRGEAQERETFLENQSQPFGMALVGDTFYVGNTDGIMAFPYRPGATRLEGPGRRLTTFKPGGHWTRSLIVSPDGRRIYAGVGSLSNIGDDGMEAEEGRAAIWELDLASGQARIYASGLRNPVGLAWEPTTRVLWTVVNERDGLGDETPPDYLTSVEEDGFYGWPYCYWNRIVDDRVPQDPAMVARAITPDYALGGHTASLGLCWVPAGTLPGFGDGMAIGQHGSWNRSKLSGYRLIFVPFANGRPSGPPRDILTGFLSDDEKLAYGRPVGVAVGPDRRSLLLADDVGDVIWRVTGALEHHHHHH | not soluble |
| MDSKAIAERIKKLQAQQEHVRIGGKGTPRRKKKVIHKTAAADDKKLQSNLKKLSVTNIPGIEEVNMIKDDGTVIHFNNPKVQTSVPANTFSVTGSADNKQITEMLPGILNQLGPESLTHLKKLANNVTKLGPDGKGEDEDVPELVGDFDAASKNETKADEQ | soluble |
| MKLHLEIWRQAGPNSEGHFEPIDVNDAVPQMSVLELLDHVNTGLIEEGKEPFVFASDCREGICGTCGLLVNGRPHGLDKNKPSCQQRLDHVPDGSTLKIEPLRSAAYPVVKDLLVDRSALDRVLEKGGFVSINAGTAPDADTLHQNHESAELALDH | not soluble |
| MGSDKIHHHHHHLNTLKTNAMEIFKQAVSTLNNPEVQGWKQQGGKVVGYFYSYIPEELITAAGLLPYKIRGIGSPGAAMADKYFTHNVCSLVRDTFELVLKGECDFLDGVINFNGCDHIRRISDNWQSLENNPCFHFLVLPKKVGKEQTERYREELVSLKASIEKRFNLVISEDKLKEAIRLHNKKRQLQRRLYELKKRENPPLSGAETLTVMIAGTVMPVARYNRLLAELIDELSISEGKKPNARLMLIGGELDNPELLKILESQGGMVVSDTMALGAREIACDVSETEDGLTALARYHMEDKPPCPRLYGTFQERFDFIRKTAREYQVDGVISLRFLLCDIWGFEQNDIAEILRTEKLPYLKLETEYALTNAGQLKTRVQAFVETLGEV | not soluble |
| MSLPQSKVLTSFGTANRTPRAAETHPLTWRLRDDGQPVWLEEYQTKQGYDAVRKALGQMSPDEIVSTVKDAGLKGRGGAGFPTGVKWGLMPKDESMNIRYLLCNADEMEPNTWKDRLLMEQLPHLLIEGMIISAKALKAYRGYIFLRGEYVDAAINLRRAVEEAKAAGLLGKNILGSGFDFELFVHTGAGRYICGEETALINSLEGRRANPRAKPPFPAVSGVWGKPTCVNNVETLCNVPAIIGNGVAWYHTLALPGSEDHGTKLMGFSGKVNNPGVWELPFGITARELFEGYAGGMRSGYRLKAWQPGGAGTGFLLPEHLDAQMYTAGIGKVGTRMGTGLAMAVDDSISMVSLLRNMEEFFARESCGWCTPCRDGLPWSVKLLRSLERGEGQEGDLATLEQLCNFLGPGKTFCAHAPGAVEPLASAIKYFRSEFEAGIKGSGDNRKSIKGIQPNLLGERWAAALEHHHHHH | soluble |
| MKINRKGGLFLLMFLFLLTGCWDRRELEHVLFINTLGIDFKDNHYIIYPQFINFTNMAKQEGPANRNYSPAYIGKGEGKLLYDAAFDFYKSSQQKVSWEHIKSIVVTERFLKNGNLNQLNDFLSRFFQFRNTMWVFGTKEPLENILATNNIFNISSLYTIMNLPQETIRQSASVDPLRLYTFRSNYYEPGMTTRIPFLATTTEHWKQGHKAFWMLEFNEYGCIAAKSYVNHLNDSDIAGVRWTNKNTNRAPLLLKVKNRAIGELILKKPKIDTKVSIEKGKPHIVMNISLEGDIYQLMKPMPVHKVKKTLRISLKKK | not soluble |
| MTTVSEQANFTFSPEEVARFERDGYIGPVKIFEPEEMTRRWNIIRRQLLDRSLAIYPDSNGKANISNYDRHLDIDLLAEHIMRPEIVDRVGSLIGRNLLCWRSEFFPKYQGDEGTDWHQAATFAHATGKPQIIWPSDEGRPAFIGTITVWTAFTHSTEQNGCLQLMPGTHTSMNYDESKGMDYDADAINQREKDGIKRGFFGYDYRSLQKDPDWKPDESQAYPMVLKPGEAVIFWSNTMHASLPHTGSKTDYRMGFAARYVPTQVQVYPGTENLTEYGDGINLEKYGAVLTSGVDEYGHNRIARTSQRGYEFVPRQIPS | soluble |
| MQDLKVISKHYAKALKNHTKSDLALLEEIVVGLKNATEAIRQHKLNQVLAHVSLKVKKEVVFEILEKITSIKACSVLKPVMEVVLKNNRLDMLELITEELSFDSKRTLEATLLVPEKLENNELEAVQQKLQARFNAPVEITQDTWSKKGVSLSVSSLDLEIGFSKEDILKKIEKQVIQSI | not soluble |
| MGSDKIHHHHHHMSSTPSNQNIIPIIKKESIVSLFEKGIRQDGRKLTDYRPLSITLDYAKKADGSALVKLGTTMVLAGTKLEIDKPYEDTPNQGNLIVNVELLPLAYETFEPGPPDENAIELARVVDRSLRDSKALDLTKLVIEPGKSVWTVWLDVYVLDYGGNVLDACTLASVAALYNTKVYKVEQHSNGISVNKNEVVGKLPLNYPVVTISVAKVDKYLVVDPDLDEESIMDAKISFSYTPDLKIVGIQKSGKGSMSLQDIDQAENTARSTAVKLLEELKKHLGI | not soluble |
| MGSDKIHHHHHHMSRLSTAPWGPVLKSVPTAAHWSLRPWCLSISLSANSEAMNKMQTEKLITPFAHALQHEHGVWGLIDQMKAVTHFLDEELERDRIRNLGIADASFLRKFGAKGTYAAQWLEAQGVVIPTRPNSWAQAADGSLALRLGNSEFLIEDVPGGTSCDRLAQACAGARGVYPVPHVEASFVISGHAVQALFSEVCSIDLTHASLGAQDVVMTQFAGVSVVLIRQDLKEEESLYRLWCDSSYGSYLWEVIAGIAHEHKGGPVGIGRYFASCP | not soluble |
| GIDPFTFENATSDAINQDMMLYIERIAKIIQKLPKRVHINVRGFTDDTPLVKTRFKSHYELAANRAYRVMKVLIQYGVNPNQLSFSSYGSTNPIAPNDSLENRMKNNRVEIFFSTDANDLSKIHSILDNEFNPHKQQE | soluble |
| MGKEIQLKPKANVSSYVHFLLNYRNKFKEQQPSTYVGFKEFSRKCSEKWRSISKHEKAKYEALAKLDKARYQEEMMNYVGKRKKRRKRDPQAPRRPPSSFLLFCQDHYAQLKRENPNWSVVQVAKATGKMWSTATDLEKHPYEQRVALLRAKYFEELELYRKQCNARKKYRMSARNRCRGKRVRQS | not soluble |
| MSGAIYRCMAIASEPLDALIIGAGHNGLVCAAYLARAGKRVLVLEAREVVGGAAVTEEFHPGFRNSVAAYTVSLLQPRVIADLALERHGLRVVPRRINNFLPLPNGDYLLAGAGRTAQDVARFSARDAAALPAYEARLEQLADVLRALALQPPPDVTDGGWLQALPQLWRAGKLGLQLQGLPLTLRQELLDLFTISAAEYLDRWFESAPIKALFGFDGIVGNYASPHTPGTAYVLLHHVFGQSNGVKGAWGHAIGGMGAITQAMAASAREYGAQLRTGCAVERVLVEQGHAVGVVTTAGETVRARAVVANVNPKLLYQRLMRPDDVPATTRERIAHYRCGSGTFRMNVALSRLPDFAALPGNGDHLTAGIILAPSLDYMDRAWHDARAFGWSREPVVELLIPSTLDDTLAPPGQHVASLFCQHVAPQLPDGRRWDDHREEVADLMIATVERYAPGFAASVLGRQVLSPLDLERMFGLVGGDIFHGALSLNQLFSARPLLGQGAYRGAVPGLYLCGSGTHPGGGVTGAPGHNAARVILGGLEHHHHHH | not soluble |
| MSQSRHRAEAPPLEREDSGTFSLGKMITAKPGKTPIQVLHEYGMKTKNIPVYECERSDVQIHVPTFTFRVTVGDITCTGEGTSKKLAKHRAAEAAINILKANASICFAVPDPLMPDPSKQPKNQLNPIGSLQELAIHHGWRLPEYTLSQEGGPAHKREYTTICRLESFMETGKGASKKQAKRNAAEKFLAKFSNISPENHISLTNVVGHSLGCTWHSLRNSPGEKINLLKRSLLSIPNTDYIQLLSEIAKEQGFNITYLDIDELSANGQYQCLAELSTSPITVCHGSGISCGNAQSDAAHNALQYLKIIAERK | soluble |
| MSLASAIRICTKFSRLSLNSRSTSKSLIHCMSNVTADVPPVSETKSKFLKAYKRPIPSIYNTVLQELIVQQHLMRYKKTYRYDPVFALGFVTVYDQLMEGYPSDQDRDAIFKAYIEALNEDPKQYRIDAQKMEEWARSQTSASLVDFSSKEGDIEAVLKDIAGRAGSKEGFSYSRFFAVGLFRLLELASATDPTVLDKLCASLNINKKSVDRDLDVYRNLLSKLVQANELLKEYVEREKKKQEERAQSQKANETISKCLGDTLYNPSFLVERKSEGHHHHHH | soluble |
| MIRILHTADWHLGQTFFGYDRAEEHKAFLDWLAEEIRQNEIDALVIAGDVFDVSNPSAASQRIYYEFIYRVTAENPKLQIVIVAGNHDSAARLEAPLPLLQAMRTEVRGVVRKLEGGEIDYDHLTIELKNREGEVEVLCMAVPFLRQGDYPVVETEGNPYMEGVRELYARLLQRLWARRKTNQAILAVGHLQATGSEIAEKDYSERTVIGGLECVSPDTFSEKIAYTALGHIHKAQRVSGRENVRYAGSPIPMSFAEKHYHHGVVMVILDEGCAVDIRRIECPQSIPLISVPGGEAASPEKIIEILRDLPEVDGEAPYLEVKVLLEEPEPMLRQEIEEALAGKKYRLARIVSAYRQEERVEKEVDGWKKGLQEMSPLQIAQSAFEKVYQAEMPADLTDLFQEAYISATRKEEEEGE | not soluble |
